We go through one molecule from CN116041520A (WUHAN ABCLONAL CO LTD, dated 2023).

In the experiment the target is T1, 重组Human CD63蛋白(Ala103-Val203) (Human, UniProt P08962 103-203).
T1 construct: Fragment 103-203 of human CD63 expressed in 293F cells from vector pBR322 and purified with imidazole elution; also called 重组CD63蛋白; 重组Human CD63成熟蛋白
T1 sequence: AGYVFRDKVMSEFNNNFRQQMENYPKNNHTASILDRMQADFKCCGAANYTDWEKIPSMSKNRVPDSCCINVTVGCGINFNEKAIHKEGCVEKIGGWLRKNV
Put plainly: sandwich ELISA, 3C5 coated as capture antibody at 2 ug/mL, Human CD63 0-10 ng/mL, OD450. (In an ELISA, binding on a coated surface is turned into a signal by an enzyme label.)

B1: 针对Human CD63的兔单克隆抗体3C5 (antibody, V domains shown)
VH: QEQLVESGGGLVQPEGSLTLTCTASGFTFSTAWMSWVRQAPGKGLEWIGIINTGGTGKTYYASWAKGRFTCSKTSSTTVTLQMTSLTAADTATYFCARETADFNLWGQGTLVTVSS
VL: DVVMTQTPSSTSEPVGGTVTINCQASESVYNNDDLAWLQQKPGQPPKVLIYSASKLASGVPSRFSGSGSGTQFTLTISGVQCDDAASYYCVGLFDGDYFAFGGGTEVVVKG
notes: Coated on the plate as capture antibody at 2 ug/mL; also called 捕获抗体
Take B1: the binding result is “binds”.
